# Laboratory results published in doi:10.1101/2022.09.29.510206 (bioRxiv, 2022).
# Biological target: Norrin (Norrie Disease Protein), biotinylated (UniProt Q00604 25-133, biotin (in vivo biotinylation))
# Experiment: SPR
# Sequence of Norrin (Norrie Disease Protein), biotinylated (Q00604 25-133): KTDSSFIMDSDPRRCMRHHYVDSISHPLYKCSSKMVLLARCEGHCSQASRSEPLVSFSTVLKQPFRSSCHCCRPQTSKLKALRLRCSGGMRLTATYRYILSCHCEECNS
row,Binder,fold weaker affinity than Fz4_(CRD-Connector) [fold]
1,"mouse Fz8_(CRD-Connector), residues 30-170 (domain or fragment, UniProt Q61091 30-170, looked up) AKELACQEITVPLCKGIGYNYTYMPNQFNHDTQDEAGLEVHQFWPLVEIQCSPDLKFFLCSMYTPICLEDYKKPLPPCRSVCERAKAGCAPLMRQYGFAWPDRMRCDRLPEQGNPDTLCMDYNRTDLTTAAPSPPRRLPPP",~55
2,"chimaera of Fz4CRD+Fz8_(Connector) (domain or fragment, human | mouse, UniProt Q9ULV1 42-151, looked up) ERRCDPIRISMCQNLGYNVTKMPNLVGHELQTDAELQLTTFTPLIQYGCSSQLQFFLCSVYVPMCTEKINIPIGPCGGMCLSVKRRCEPVLKEFGFAWPESLNCSKFPPQGNPDTLCMDYNRTDLTTAAPSPPRRLPPP",~15
3,"Fz4_(CRD-Connector) (M105N) mutant (domain or fragment, human, UniProt Q9ULV1 42-179, looked up, M105N is meant to introduce an N-linked glycosylation site) ERRCDPIRISMCQNLGYNVTKMPNLVGHELQTDAELQLTTFTPLIQYGCSSQLQFFLCSVYVPNCTEKINIPIGPCGGMCLSVKRRCEPVLKEFGFAWPESLNCSKFPPQNDHNHMCMEGPGDEEVPLPHKTPIQPGE",~53
